The chains are these.
B1: TPR 5TU (parent)
chain: GGAUCUUCUCGAUCUAACAAAAAAGACAAAUCUGCCACAAAGCUUGAGAGCAUCUUCGGAUGCAGAGGCGGCAGCCUUCGGUGGCGCGAUAGCGCCAACGUUCUCAACUAUGACACGCAAAACGCGUGCUCCGUUGAAUGGAGUUUAUCAUG

This sample holds only a part of the variants without activity.

In this series the parent is B1. Nature of the series: polymerase ribozyme fitness, log enrichment relative to wild type (log ratio); higher = more active; in vitro selection for triplet polymerase activity. Summed up:
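Both subunits of a heterodimeric triplet polymerase ribozyme were given their own mutant library, built by PCR and transcribed. Each library was annealed with a biotinylated primer, the partner subunit and triplets, incubated frozen at −7 °C, and its extended constructs gel-excised, captured on streptavidin beads and amplified by RT-PCR, all in one round done in triplicate. Fitness is the logarithm of genotype enrichment relative to wild-type enrichment, with replicates averaged by inverse-variance weighting. That logarithm is base 2, and Illumina-sequenced genotypes needed ≥10 input reads and ≥1 read per output.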
For A19U G59C A89U G92C A121G, the “polymerase ribozyme fitness (log ratio)” value is -2.25.
Next, A20C C85U A115U: -1.06; A20C A21G A23C A28U C38A: ≤ -4.2; A20C U90G C99U G136C: ≤ -4.2.
In the case of A20G G70C C75U C93A C95U U109C, the “polymerase ribozyme fitness (log ratio)” value is ≤ -4.2.
Turning to A20C C54U G86C U101C U104A, the “polymerase ribozyme fitness (log ratio)” value was ≤ -4.2.
Take A20G A91G U146A: the “polymerase ribozyme fitness (log ratio)” value is -3.96.
In the case of A19U U44G G50C A73G C76A G140A, the “polymerase ribozyme fitness (log ratio)” value was ≤ -4.2.
On to A20C G25C G34U C54A A91G A119U A122U G124U C125G, for which the “polymerase ribozyme fitness (log ratio)” value is ≤ -4.2.
For the variant A20U C93U G126A, the “polymerase ribozyme fitness (log ratio)” value is -1.5.
The same measure for A20U A30G U53A U55G C63G G141U: ≤ -4.2; for A20U A52G G58A C76G G81A G86A A122C: ≤ -4.2; for A19U G59A G83U U139G: -1.28.
Turning to A20U A73G C79A C96G, the “polymerase ribozyme fitness (log ratio)” value was ≤ -4.2.
Next, A20C G34A A47G U104G U130G A150G: ≤ -4.2; A20C G42C G50U G84A C99A: ≤ -4.2; A20C U55A G67C G124A A137U: ≤ -4.2.
Next, A20G G59A U77A C95U G117U C118G A122U: ≤ -4.2; A20C A22U G58A U77C C96G: ≤ -4.2.
In the case of A20U C38G C57U G86A, the “polymerase ribozyme fitness (log ratio)” value is -3.63.
Regarding A20C C63U A64C, the “polymerase ribozyme fitness (log ratio)” value is ≤ -4.2.
As to A20G A24U C85A C116A, the “polymerase ribozyme fitness (log ratio)” value is -0.238.
For the variant A20C U61A C63U C85U, the “polymerase ribozyme fitness (log ratio)” value was -1.55.
Next, A20C G92A U101G G124A C129U: -3.24; A20G A91U: ≤ -4.2; A19U U33A G84A G92C G94C: ≤ -4.2.
On to A20G G58A G81C A142C, for which the “polymerase ribozyme fitness (log ratio)” value is -1.55.
A20C C118U: the “polymerase ribozyme fitness (log ratio)” value was -0.906.
On to A20G C57A C69A C76U C96U, for which the “polymerase ribozyme fitness (log ratio)” value was -1.94.
As to A20U G59U G136C G141U, the “polymerase ribozyme fitness (log ratio)” value was -3.78.
A20U A39C G48A G94A: the “polymerase ribozyme fitness (log ratio)” value is ≤ -4.2.
The same measure for A20G C125A: -0.707; for A20C A23U C27A G58U C72A A89G C99A A107C: ≤ -4.2; for A20U A40C U55A A73U: -3.94.
Next, A19U U31A G58C C63U G70C C95U C131G G152U: ≤ -4.2; A20C A47C A60G C85A G140U: ≤ -4.2; A20G A73G C85A: -2.05.
Next, A20U A47G G50U C85G: -3.77.
In the case of A20G A28U G42C A49C C93G C103A, the “polymerase ribozyme fitness (log ratio)” value is ≤ -4.2.
Take A20G C93A C132G U134G U148G: the “polymerase ribozyme fitness (log ratio)” value was ≤ -4.2.
Turning to A20C C85U G86U C93A A119U A121G, the “polymerase ribozyme fitness (log ratio)” value is -1.77.
Take A20U A97U: the “polymerase ribozyme fitness (log ratio)” value is -2.04.
In the case of A20U A40U A49C G94A C99A G143A, the “polymerase ribozyme fitness (log ratio)” value is ≤ -4.2.
Regarding A19U G58A G94U C116A A119C, the “polymerase ribozyme fitness (log ratio)” value is -0.758.
As for A20C G50U G81C C103U A120U, the “polymerase ribozyme fitness (log ratio)” value was -2.
Turning to A20C U56A C75U, the “polymerase ribozyme fitness (log ratio)” value was -0.244.
Turning to A20C A22U C51U, the “polymerase ribozyme fitness (log ratio)” value was -0.386.
For the variant A20G C36G G83A A91G A142G, the “polymerase ribozyme fitness (log ratio)” value is ≤ -4.2.
For A20U G50A U55G C85U A91U A137G, the “polymerase ribozyme fitness (log ratio)” value was ≤ -4.2.
For the variant A20C A49U A60C, the “polymerase ribozyme fitness (log ratio)” value is -3.14.
On to A20U A28U G42C G86U C93A C114U, for which the “polymerase ribozyme fitness (log ratio)” value was -4.17.
Take A20U A47U A89U C96U G128U: the “polymerase ribozyme fitness (log ratio)” value was ≤ -4.2.
Next, A20U A47C C57U A64C G84C U148G: ≤ -4.2.
With A20U A23C C35G G84A C125U, the “polymerase ribozyme fitness (log ratio)” value was ≤ -4.2.
On to A20C C85U A89G A106G, for which the “polymerase ribozyme fitness (log ratio)” value is -2.07.
Turning to A20U A30U A37U C51G C93U C95A C96G C116G, the “polymerase ribozyme fitness (log ratio)” value was ≤ -4.2.
Regarding A20U C51U G83A C93G C96U C103A C105A, the “polymerase ribozyme fitness (log ratio)” value was ≤ -4.2.
On to A20U C51U U55G C57G A120C, for which the “polymerase ribozyme fitness (log ratio)” value is -3.76.
With A20C G86A, the “polymerase ribozyme fitness (log ratio)” value is -2.24.
A20C A24U U44A G88A C93U: the “polymerase ribozyme fitness (log ratio)” value is ≤ -4.2.
Consider A20G C95A A110G, for which the “polymerase ribozyme fitness (log ratio)” value is -3.46.
In the case of A20C C54U C95U G140U, the “polymerase ribozyme fitness (log ratio)” value is -3.23.
Take A20C U104G A107C U145G: the “polymerase ribozyme fitness (log ratio)” value is ≤ -4.2.
For A20U C54A C96G C108G U109G C118G C132A G143A U148A C149U, the “polymerase ribozyme fitness (log ratio)” value was ≤ -4.2.
As to A20G C43U G62U A91G, the “polymerase ribozyme fitness (log ratio)” value was ≤ -4.2.
Consider A20C C85A A97U, for which the “polymerase ribozyme fitness (log ratio)” value was -3.02.
In the case of A20G A21C U31C C103A U144G, the “polymerase ribozyme fitness (log ratio)” value is -1.73.
As to A20C C76U C85U C95U C96U, the “polymerase ribozyme fitness (log ratio)” value is -3.03.
Next, A20C C79A G94C: ≤ -4.2; A20U A28C G83U C87A C99G G140A: ≤ -4.2.
In the case of A20U C96G A150U, the “polymerase ribozyme fitness (log ratio)” value was determined as 0.47.
As for A20G A22U C87U, the “polymerase ribozyme fitness (log ratio)” value is -2.33.
In the case of A20C A21U A23C C51A C123A A138U, the “polymerase ribozyme fitness (log ratio)” value was ≤ -4.2.
Next, A20G A21C C93A A97G: -3.83.
On to A20C G48C G62A, for which the “polymerase ribozyme fitness (log ratio)” value is -2.35.
Next, A20G A28G U90A C93A C95G A106U C123U: ≤ -4.2; A20U A40C: -0.959; A20U A22G C51A G92A C93A C132U: ≤ -4.2.
The same measure for A20G C35G C51A C85U C99U C129A U148A: ≤ -4.2; for A19U G84C: -2.08.
For A20G G80C U82A G100A U135C, the “polymerase ribozyme fitness (log ratio)” value was ≤ -4.2.
On to A20G C27G G67C U78G A89U C93G G124A U151G, for which the “polymerase ribozyme fitness (log ratio)” value is ≤ -4.2.
For the variant A20U A22U A121U G128A C129U A137C A138C, the “polymerase ribozyme fitness (log ratio)” value was ≤ -4.2.
On to A20U A24G C32G U78A G83C, for which the “polymerase ribozyme fitness (log ratio)” value was ≤ -4.2.

For the origin of these results see the RNAGym collection of RNA variant scans (doi:10.1073/pnas.2313332121).
